Results published in patent publication US20110151450.
Positions count from the first letter of the chain named.

What was measured:
Assay in all cases: cleavage_in_vitro
[1] = test system: T1, PmeI-WT (Pseudomonas mendocina); details: NEB4, relative activity 25%
T1 sequence: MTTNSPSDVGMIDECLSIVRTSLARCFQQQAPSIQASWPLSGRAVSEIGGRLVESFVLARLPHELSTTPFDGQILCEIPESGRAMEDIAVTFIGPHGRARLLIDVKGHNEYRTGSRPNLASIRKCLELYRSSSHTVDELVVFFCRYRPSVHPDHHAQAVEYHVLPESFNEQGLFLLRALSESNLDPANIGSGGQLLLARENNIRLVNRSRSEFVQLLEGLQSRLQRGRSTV

[2] = test system: T2, BmtI-HF S50A (Bacillus megaterium); details: NEB4, relative activity 100%
T2 sequence: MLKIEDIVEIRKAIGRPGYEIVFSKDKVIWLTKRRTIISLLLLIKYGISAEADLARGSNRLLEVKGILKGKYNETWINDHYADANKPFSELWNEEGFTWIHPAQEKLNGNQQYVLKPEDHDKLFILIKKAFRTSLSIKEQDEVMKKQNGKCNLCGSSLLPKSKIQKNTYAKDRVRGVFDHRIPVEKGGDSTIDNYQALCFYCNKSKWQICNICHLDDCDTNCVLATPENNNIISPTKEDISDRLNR

[3] = test system: T3, BmtI-WT (Bacillus megaterium); details: NEB4, relative activity 100%
T3 sequence: T2 sequence with A50S

[4] = test system: T4, NsiI-HF F376A (Neisseria sicca); details: NEB4, relative activity 100%
T4 sequence: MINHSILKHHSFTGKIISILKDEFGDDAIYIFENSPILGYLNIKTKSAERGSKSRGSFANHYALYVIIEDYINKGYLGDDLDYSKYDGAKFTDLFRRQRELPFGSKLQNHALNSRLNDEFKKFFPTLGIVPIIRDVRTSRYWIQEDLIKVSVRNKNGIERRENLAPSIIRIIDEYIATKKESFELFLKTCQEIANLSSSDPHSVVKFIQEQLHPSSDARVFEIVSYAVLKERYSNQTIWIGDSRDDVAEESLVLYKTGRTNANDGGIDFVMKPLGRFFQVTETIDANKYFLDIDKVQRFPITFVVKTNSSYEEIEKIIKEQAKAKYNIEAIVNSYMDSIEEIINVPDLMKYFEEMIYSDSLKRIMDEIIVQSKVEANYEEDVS

[5] = test system: T5, PvuI-WT (Proteus vulgaris); details: NEB4, relative activity 12.5%
T5 sequence: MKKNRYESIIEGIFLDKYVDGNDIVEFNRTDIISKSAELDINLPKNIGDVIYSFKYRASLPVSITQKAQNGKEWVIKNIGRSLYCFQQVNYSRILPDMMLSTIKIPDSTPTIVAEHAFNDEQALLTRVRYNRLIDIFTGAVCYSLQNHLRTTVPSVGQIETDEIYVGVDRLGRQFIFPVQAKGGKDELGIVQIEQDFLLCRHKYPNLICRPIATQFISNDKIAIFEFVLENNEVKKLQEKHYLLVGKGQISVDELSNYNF

[6] = test system: T6, NsiI-WT (Neisseria sicca); details: NEB4, relative activity 12.5%
T6 sequence: T4 sequence with A376F

[7] = biological target: T7, SmaI-HF F60L/S61R (Serratia marcescens) (UniProt P14229); details: NEB4, relative activity 100%
T7 sequence: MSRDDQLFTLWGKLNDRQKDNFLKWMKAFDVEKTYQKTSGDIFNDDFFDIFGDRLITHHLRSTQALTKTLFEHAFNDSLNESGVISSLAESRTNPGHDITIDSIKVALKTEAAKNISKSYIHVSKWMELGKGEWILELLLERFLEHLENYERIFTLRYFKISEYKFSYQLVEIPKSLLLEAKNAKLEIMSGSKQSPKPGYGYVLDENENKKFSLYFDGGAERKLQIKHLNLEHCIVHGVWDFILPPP

[8] = test system: T8, ApoI-WT (Arthrobacter protophormiae); details: NEB4, relative activity 50%
T8 sequence: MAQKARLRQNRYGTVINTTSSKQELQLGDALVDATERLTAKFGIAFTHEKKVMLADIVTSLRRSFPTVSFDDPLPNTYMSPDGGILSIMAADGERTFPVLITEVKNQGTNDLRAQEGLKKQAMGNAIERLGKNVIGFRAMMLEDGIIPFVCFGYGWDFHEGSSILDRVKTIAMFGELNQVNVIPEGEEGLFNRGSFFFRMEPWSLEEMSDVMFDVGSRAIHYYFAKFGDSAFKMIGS

[9] = test system: T9, SpeI-HF P65A (Sphaerotilus natans); details: NEB4, relative activity 100%
T9 sequence: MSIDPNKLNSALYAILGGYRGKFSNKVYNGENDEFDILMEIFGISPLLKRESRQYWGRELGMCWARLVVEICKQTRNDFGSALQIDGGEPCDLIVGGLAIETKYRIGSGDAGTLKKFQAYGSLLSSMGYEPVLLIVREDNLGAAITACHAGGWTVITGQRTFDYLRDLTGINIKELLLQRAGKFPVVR

[10] = biological target: T10, BglII-WT (Bacillus globigii) (UniProt Q45488); details: NEB4, relative activity 6.3%
T10 sequence: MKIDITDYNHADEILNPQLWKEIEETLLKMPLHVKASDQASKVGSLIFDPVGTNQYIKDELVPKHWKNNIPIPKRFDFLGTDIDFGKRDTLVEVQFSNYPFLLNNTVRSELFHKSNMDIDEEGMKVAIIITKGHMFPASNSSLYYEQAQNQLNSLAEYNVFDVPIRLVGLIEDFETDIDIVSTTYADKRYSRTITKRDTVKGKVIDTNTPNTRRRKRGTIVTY

In the case of pXba plasmid, the activity (fidelity index) [1] is reported as 64, the activity (fidelity index) [2] is reported as > 1e+06 and the activity (fidelity index) [3] is reported as 16. The activity (fidelity index) [4] was > 8000, the activity (fidelity index) [5] was 32 and the activity (fidelity index) [6] was 32. The activity (fidelity index) [7] was > 256000, the activity (fidelity index) [8] was 32 and the activity (fidelity index) [9] was > 8000. It also gave an activity (fidelity index) [10] of 16.
